Reference: article PMC8860610, “The fork protection complex recruits FACT to reorganize nucleosomes during replication” (Nucleic Acids Research, 2022)

B1: Tof1-Csm3 (full-length, CBP-tagged) (complex, Saccharomyces cerevisiae)
chain 1: MSADLQQGTTNAADFSLTVLRARIALLATAIGGPDYTSQIDPPPYKLGDDCLACLKDLKRWFKLVDDQQKRWDVAMAVAEYRILTDDLLPILIDWENKCSLAAKLAKNNPDHEEFRNKAYYDKIALNCLQLLVLMTWPLIVTEQSSSNQITLYGELKKHQLVYKKTILSMESGKVLRAAIRLALDVIKIDRLSRTPRDNMVLKLVLNFFRNVIAIEPGEFTINTKKSMPKKGITSIDTLPPNVSMDDISLNTVISSFHKNKVFGFLLTLTSSLSKEFDQDFINIPLLEIMFYFTKDVNQELLFPRQFETGTHSKVVNKNESSSANNIVTSAGFELSKLLQKEHQMRKNVIKHTSARHSRFGGLLSIQTPDKTRLTVSGSQALVDEKIALQKLDDSKKWNKRIIKKHQSVAAEGLPNSLLNSQTGKAIFFTESNGKHFKEFINNFIDSGFNILLHSVTNYFTTEQDRMVTLEQVEYLLFFAWFVKYQLLRSKIDNSADIKQVSEALKEVTFILVSSLLRSAYDLKNWTVTHAGMIAFNELLNLVSRTKAAQEEDSTDIEFIVSRLFSDERIQLLSNLPKIGSKYSLQFMKSCIELTHSVLKVLEQYSDDKTLVIEGKSRRQKKFNISEGDITKLIEEENVDRDEALDILTSSLRSIEVNFQKVQANYMTEPVIETYINFLERFRELEDDSIKKVFSFFHRVFVQAKEQALLFRFDLIILLREMLSPDGLDRMSRSRKYVSQFSDYFLARLKKRLKKSPAWFVGLLFPPLHNSEVGFYQRYGEYNVLNNESMYAAPASQFKPIPDEEALPPSILLDMKYGVLVSTLLDDGKTELLDQLLKHITHTLDIFKSWLTVNVNAGKETVNPPNEYFTLTGVLNNDPIFKDKDYRALLLLIGYSIPRKINEPCFLPGTVEVSDLTVSCELVKKYLSTPFETPNGLPSSSYLLRVRSEKDSFSHNEQDGWEGDDDYDYNDPYIVPDDQILSKSDAAYFKDLDNNASDKLKGTKFSKGIARSKKKDKRKRRKGEAKTNLPMFGDQDDERPQTVRERHGVFSKEFISDSEDDEDLMNPIFFENETYMRWLLDKNNGQLTEDRYIQFAKFAAERMNNGGVVTGDYTSLFGGSIPSIESIRATESSSFAPDKSLISLASHVASEMSIFDVNNNNNNQLSDDDVNSESRNSLGSSQPSNSQNMFQSEVYSRKESTKRSLEASAADESDEDEEAIRLFGKKSRVVLSQGDSDD
chain 2: MDQDFDSLLLGFNDSDSVQKDPTVPNGLDGSVVDPTIADPTAITARKRRPQVKLTAEKLLSDKGLPYVLKNAHKRIRISSKKNSYDNLSNIIQFYQLWAHELFPKAKFKDFMKICQTVGKTDPVLREYRVSLFRDEMGMSFDVGTRETGQDLERQSPMVEEHVTSAEERPIVADSFAQDKRNVNNVDYDNDEDDDIYHLSYRNRRGRVLDERGNNETVLNNVVPPKEDLDALLKTFRVQGPVGLEENEKKLLLGWLDAHRKMEKGSMTEEDVQLIQSLEEWEMNDIEGQHTHYDLLPGGDEFGVDQDELDAMKEMGF
notes: Tof1, subunit of the fork protection complex, Saccharomyces cerevisiae (1238 aa by the printed truncation limits); Csm3, subunit of the fork protection complex, Saccharomyces cerevisiae; also called CBP-Csm3Tof1; CBP-tagged Csm3-Tof1
B2: GST-tagged Tof1_C (938-1238 aa) (domain or fragment, Saccharomyces cerevisiae, UniProt P53840 938-1238, looked up)
chain: PSSSYLLRVRSEKDSFSHNEQDGWEGDDDYDYNDPYIVPDDQILSKSDAAYFKDLDNNASDKLKGTKFSKGIARSKKKDKRKRRKGEAKTNLPMFGDQDDERPQTVRERHGVFSKEFISDSEDDEDLMNPIFFENETYMRWLLDKNNGQLTEDRYIQFAKFAAERMNNGGVVTGDYTSLFGGSIPSIESIRATESSSFAPDKSLISLASHVASEMSIFDVNNNNNNQLSDDDVNSESRNSLGSSQPSNSQNMFQSEVYSRKESTKRSLEASAADESDEDEEAIRLFGKKSRVVLSQGDSDD
notes: Tof1, Saccharomyces cerevisiae, residues 938-1238, codon optimized for bacteria; Cloned into a pET GST-His6-TEV vector; no cleavage is described; source: E. coli BL21 (DE3) codon plus RIL, purified (GSTrap, Q column, Superdex 200)

What was measured:
Details in all cases: both partners purified
[1] = molecular target: T1, full-length (fl) FACT (Spt16-Pob3) (Saccharomyces cerevisiae, UniProt P32558 1-1035; Q04636 1-552); assay: pull-down; 1.5 μM CBP-Csm3Tof1 as bait on Calmodulin Affinity Resin, 3 μM fl FACT as prey, 90 min at 4°C, washed with buffer C (25 mM HEPES-NaOH pH 7.6, 300 mM NaCl, 2 mM CaCl2), eluted with EDTA and EGTA, SDS-PAGE
T1 construct: Spt16, subunit of FACT, Saccharomyces cerevisiae; Pob3, subunit of FACT, Saccharomyces cerevisiae; His-tag cleaved by TEV protease; also called yFACT when together with Nhp6; source: yeast strain yBS2, galactose-induced, purified (HisTrap, TEV cleavage, Q column, Superdex 200)

[2] = molecular target: T2, FACT consisting of Spt16 and GST-tagged Pob3 (Saccharomyces cerevisiae, UniProt P32558 1-1035; Q04636 1-552); assay: pull-down; 0.5 μM GST-Pob3Spt16 as bait with 1 μM replisome factor, on ice 30 min, immobilised on glutathione agarose 90 min at 4°C, washed with buffer G (50 mM HEPES-NaOH pH 7.6, 300 mM NaCl, 0.05% NP-40), eluted with glutathione, SDS-PAGE
T2 construct: Spt16, subunit of FACT, Saccharomyces cerevisiae; Pob3, subunit of FACT, Saccharomyces cerevisiae; The methods speak of a His-tag cleaved by TEV protease without telling which subunit carried it; also called GST-Pob3Spt16; GST-tagged Pob3-Spt16; source: yeast strain yBS2, galactose-induced, purified (HisTrap, Q column, Superdex 200)

Spt16 subunit on its own = molecular target: T3, Spt16 subunit on its own (Saccharomyces cerevisiae, UniProt P32558 1-1035); assay: pull-down; 1.5 μM GST fusion proteins (Tof1_N, Tof1_M, Tof1_C, Csm3) as bait on glutathione agarose, 3 μM fl FACT or FACT truncations as prey, 90 min at 4°C, washed with buffer G (300 mM NaCl), eluted with glutathione, SDS-PAGE
T3 construct: Spt16, Saccharomyces cerevisiae, without Pob3; also called Spt16 alone; source: yeast strain yBS2, purified by the same strategy as FACT

[3] = molecular target: T1, full-length (fl) FACT (Spt16-Pob3); assay: as above

| binding result [1] | binding result [2] | binding result (Spt16 subunit on its own) | binding result [3] | Binder |
| --- | --- | --- | --- | --- |
| binds | binds |  |  | B1 |
|  |  | binds | binds | B2 |
